The data set can be described thus: soluble on expression in E. coli; label from the status in PepcDB or PDB records.
Regarding “MCVKVACVGGGPAGLYLSILLKRQDPAHDVTVYERDPEGSTYGWGVTYWRGLLDRLRELDPGSARAVEEHSVRWRDGVAHVGGLATRHHGDEGFGIGRHRLLAILAARARELGVRLEFEHPVTGANPPAADLVVAADGAGSALRTHHADHFGTEITGGRDHYVWLGTTKVFDAFTFAFVETDHGWIWAYGYGFGPEGSTCVVECAPGTWTGLGLDRADEAEGLGLLEKLFADVLDGHPLSARSSGRASAAWPVFRTLTNRTWSRDNLVLLGDAAHTTHYSIGAGTTLALEDAMALATALRERDTLPDALAHYERERRAALLPVQSAARLSAQWYENLPRYIHLPPEQMFALLGQRHSPLLPHLPPRLYYRIDRAAGRLETLRRVKRRLGPVIARTVQARRLAAGDGRARSGRPDAVPAHRGLEHHHHHH”, the “soluble on expression in E. coli” value is “not soluble”.

“PVNQVQSSVSWPQNGSLNSVSAPLMSYTPISFDAKIPVASVDKLRKDQDLILGTLPANSEDAGARGLFVRANDDGLQITSHGELVLDLSKRELAQLPADATIAISATEDETTAGIEGDDSTTETVERDVRPIIMGIYTELESNAAADLLNAGLNAHVEINSRFTSSPTLAKYAS”: the “soluble on expression in E. coli” value is recorded as “soluble”.

Take “MGSDKIHHHHHHMAAGHGVRPARVAISLYPGCAQLYLQAQRAGKAVEALETPEAHFSVLESISLEEQMLILRSVLKRSQEQREKDFELMIQAYLSGNLDKVGALDSALGVDGLPAGLWEKIRVKLLDERNMRMAERIAAAASLQPVFVAVGAAHLPGEGGLIDLLSRAGLPYLPSIASDARRRLTFMPHLPLTHARYNSSYFRRMDGLTMADRINLRPLERNDLHFVHKLNNNDTIMRYWFEEPYEAYDELVALYDRHIHDQNERRFIIELDNGELAGLVELVEINYIHRRAEFQIIIAPDYQGRGLAKSATRIAVGYAFRVLNLHKVYLVVDKENQAAIHVYEACGFEVEGRLKEEFFSNGSYRDVLRMRLLQDDYLRHVGPAPVDASVLREWQDQ”: the “soluble on expression in E. coli” value is on record as “not soluble”.

“MGSDKIHHHHHHLKQKILHIIDSFSTGGAEVLLAGVIPELVDFEHVIVYLTPTKTPILSSDPTIKIVCLNFRSITDATRIIKDLNTIIEQEKPGIIHTHLYFSSLFIRFARTNKINIIQTYHNEYYRIRYPQFSARIKKIGLKLLDRFTMKNAYTVIHVSKAQQLVNDHDVRIKSSAVLYNYVEDQFYQTRKTSSFKGTGKLKIICVGNLKTEKNHILLLHALRQLMHLPIHVTICGEGNDYIMLQKYINRYDLPVTLMGSQKNIHELLGQHDLFVSCSIIEGFGISIAEAMASEIPLIISDISTFKEVTQNKAVFFESRNVASLAEKIEQFYLSPQSAAASVLACKEIAEQYKKSFYLDRLNTLYKK”: the “soluble on expression in E. coli” value is given as “not soluble”.

On to “MTREHPPEPLDFFIWTVEDVGSWLEEINLGGYRQIFKENGVNGEYLESMSVFTTEQILHFIRRHHMKWGDFITLCKELRRIKVACLKGEQRVRRPWWAPSCLSVVFVKAAKRNRQSRVVSLKLES”, for which the “soluble on expression in E. coli” value is listed as “not soluble”.

In the case of “GLLAFFMVIAVSVGGLTQIVPLFFQDVTNKPVEGMKPRTALEVEGRDIYIREGCVGCHSQMIRPFRAETERYGHYSVAGESVWDHPFLWGSKRTGPDLARVGGRYSDDWHRAHLYNPRNVVPESKMPSYPWLVENKLDGKDTAKKMEVLRTLGTPYTDADIAGARDAVKGKTEMDAIVAYLQGLGT”, the “soluble on expression in E. coli” value was “not soluble”.

On to “GMEGSLSRGVEIMKLRELVARSRSIRRFDEHVAVNDATLRDLVELVCYTPSAANRQLLRFLPVTGADMSDKVFPCLKWAGYLEDWPGPEPGERPAAALVMLCRNEDLPGAACDSGIAAQTIMLGAAEKELGGCIVAAIDRERLMASLGIPDAWTVLLVIALGKPAETVVIDQIKPGDDIRYWRDKHGIHHVPKRQVDELLVTAEQLRERG”, for which the “soluble on expression in E. coli” value is listed as “soluble”.

Consider “MSKVNQQDIDKLIELVGGRGNIATVSHCITRLRFVLNDPAIARPKEIEQLRMVKGCFTNAGQFQVVIGTEVGDYYKALLATTGQTSADKEQVKQA”, for which the “soluble on expression in E. coli” value is recorded as “not soluble”.

Turning to “MGSDKIHHHHHHMKHLLAGILVWVIWGLCSCQSDGKVIIPSPIYVDNHYHGPADPEITWNPKTEEWMIFYTSRRPFKDQASYVGTPVGVAVSKDFVHWKFAGYCSFDGVGGQPDSEKTYWAPGVIVEGDSAHMFVTLKDDSTPVWGGPSNIVHFSAPLEDMISGWRRVNTVVDTPISIDATVVKNGDRWDMWYRDRPTEDTGGLYYAQSNDLYHWTLKGLAKGDINNVEVTKHTYQEGAYAFQWKGYFWIIADPHKGLAVYRSKDAENWEYQGIVMYEPGTRFFDNTRARHPSVIIRNDRAFIVYHVQPFLGYNPNTHEAGDDVYQKLSFLQMAELEFKDGKLICDRNKVLYK”, the “soluble on expression in E. coli” value is given as “not soluble”.

Consider “MLLSTKSKKLIRTQYFTTPGILMRGRSHPVGDFKVQNKNPHFNDISVGKRIRYRRKMLGLSQKQLGHSLGVTFQQIQKYEKGINRVGAGRLQEIATLLDVSISFFYADISTKEHVSYPRNKGISNKEEDFLLKSFRELKPKKQKAILCLLSD”, for which the “soluble on expression in E. coli” value is recorded as “not soluble”.

With “MGSDKIHHHHHHMSMAMEHDLLIVGGGPVGATLALALQYKGIDATVLEARAHGAAHHDQRALALSYGSILILERLGLWSGLKPKATAINTIHVSQRGSLGRSLLKAEDHDQPALGYVLSYGDLSAALDDAIRQFPGIQVRYEAEALAIKPGREAAHVEYQYQAQAYSCNSRMTVLADGGRSLADIPGLERETKHYGHDALVSKVSCELPHDNIAYERFTPAGPVALLPNGTRDFSLVWTGKAEEVQALLALDDAAFLEALHTHFGDRVGRFLTVGKRLSFPLKLSYLKPVTAPHLTVIGNAAQTMHPVAGQGFNVGMRDAWELAQLLAQTPSEEWGMDRMMQAYQASRKADTRGGLLFTDFLVNVFSNDIVGLRKIRSLGLGLLDMLPLAKQHLVSKMSFGPRG”, the “soluble on expression in E. coli” value is “not soluble”.

With “KLTKSDLDILNSMKNVVDGIARMYGEHTEVVLHSLDAEAPEIIKIANGHVTERSEGAPITNLARMKLREGKDVSDSYLTKTSNGKTLHSITTIVRNPKNKPIGLLCINVDMDAPMQAFLKAMLPQQHTECCVGGAR”, the “soluble on expression in E. coli” value is listed as “not soluble”.

“MSLQESLQDRLAQVVELLHRHKVVEDLTHRQEGQHHDRVENLVHRQNLVELQRKLEELHPADIAHILESLPLDDRLTVWQLVKSEDDGDILLEVSDAVRETLIADMDDHEIIAATKDLDADELADLAPELPRDVVHELMESLDAQQRERVRSALSYEEDQVGALMDFEMVTIREDVSLEVVLRYLRRLKELPGHTDKLFVVDYDGVLKGVLPIKRLLVNDPDKQVLEVMATDPVTFHPDEDGYDAAQAFERYDLISAPVVDKGGKLIGRLTIDEMVDLIREESESEVLNMAGLREEEDIFASVWEGHHHHHH”: the “soluble on expression in E. coli” value was “soluble”.

With “MLDLFADEAPWQEPLAPGAVVLRRFAFRAAQSLLDDIGFVASQSPFRQMVTPGGYTMSVAMTNCGALGWTTDRHGYCYAVRDPLTDKPWPALPLSFASVCRQAAIAAGYASFQPDACLINRYAPGAKLSLHQDKDEPDLRAPIVSVSLGVPAVFQFGGLRRSDPIQRILLEHGDIVVWGGESRLFYHGIQPLKAGFHPMTGEFRYNLTFRQAAEKELEHHHHHH”, the “soluble on expression in E. coli” value was “soluble”.

In the case of “MELGLYTFADVNPNPADGRGPEGARRLRELLEEIELADQVGLDVFGLGEHHRPDYVVSSPSTVLAAAAVKTKNIRLTSAVSVLSSDDPVRVFQQFSTVDLLSNGRAEIMAGRGSFIESYPLFGYDLEDYDVLFAEKLDLLLALREQEVVTWSGTKHPAINGRGVYPRPLQERLPVWIAVGGTPQSVARAGAMGLPVALAIIGGEYRRFAPLFDLYHEAARRAGQEKTKLRTSINVHGFIADTTDKAADQFYGPQAEVMNRIGRERGWGPTNRAHFDAARGPEGNLFLGEPELVAEKIIKAHGVFKNDRFLLQMAIGLMPHDQIMRGIELYGTKVAPLVRKELTGSADPVKATA”, the “soluble on expression in E. coli” value is “soluble”.

With “MSLRVLGIETSCDETAVAVLDDGKNVVVNFTVSQIEVHQKFGGVVPEVAARHHLKNLPILLKKAFEKVPPETVDVVAATYGPGLIGALLVGLSAAKGLAISLEKPFVGVNHVEAHVQAVFLANPDLKPPLVVLMVSGGHTQLMKVDEDYSMEVLGETLDDSAGEAFDKVARLLGLGYPGGPVIDRVAKKGDPEKYSFPRPMLDDDSYNFSFAGLKTSVLYFLQREKGYKVEDVAASFQKAVVDILVEKTFRLARNLGIRKIAFVGGVAANSMLREEVRKRAERWNYEVFFPPLELCTDNALMVAKAGYEKAKRGMFSPLSLNADPNLNVEGHHHHHH”, the “soluble on expression in E. coli” value is “soluble”.

In the case of “MAHHHHHHMVSASPPQRDRGSPPTRPLSEPQDVDAPAAGTVQALRQAVEAQEACVRLLRARQAAREALLRHTRRLLTADDSIEWPGSVEQLVRQVEASLHKLQQAHSEAAAPAATTADNVAPTSAPSRSPRNAAGDADPSADPLARIFHSGVEAQLAAVAEPPHTLPASTLASRSSTAKRRKEAGESGLTNAVSTTSPPPGGPFPPRSAAMTALLARSASRQEAGHAAMLAALSALELSLMSNSGATEVGRDVHNAEPAWLRQVDSDSANDDDAAPEEQQQEKEGNRGDIASSDYSDDFECGSSTSSGADD”, the “soluble on expression in E. coli” value is “not soluble”.

For the sequence “MSLKEGKEFEYLFWVGSMGSYDNRSQKIAISFAKLLNHAGVSFAILGNKEKNSGDTPRRLGNEFLFQELAEKNISEFEKNDVKKIVTIDPHAYNLFKNEYPDFGFEGEVYHHTEVLAELVKNGKLRPQHPLHETITFHDSCYLGRYNEVYDPPREILKAIPGVQLVEMERSRETGMCCGAGGGLMWMEEETGNRINVARTEQALAVNPSVISSGCPYCLTMLGDGTKAKEAEDQVKTYDVVELLAQSVLGADLKMGEKQEGHHHHHH”, the “soluble on expression in E. coli” value is recorded as “not soluble”.

On to “MGSDKIHHHHHHMAMDRVTKQLTVSKLLSLANFIPKDSQKILFYSTPDVSDNALALFKYISEKTDDYELAWLLNNPNSPSVKTLKEKYPEVKTIYLYSLEGLKELLRSKFVVLTDVLPLTPHRGQKIIQLWHGLPGKKTGYEHPLNVKDLYLYMDKWTTDFVTTSELVVGAFVRQFMINPRKFRILGQPRNDGLFDNLKDAKNILSSILGRDVEDYDHLILYAPTYRYTSYMKDFQASVNVVKTLFHHKFLEFLKEENILLVIKPHKLVADVIKPEIKENSNVILLTDEHLQSRLITINDVMGAFDILITDYSSIFEDYILLERPILFYLPDREALERKSGFLLPYEFFAPGRKPETLEGLIHALKIYMEDPEVDSEWRKTVKNLLYEVGKDNKSSERIYNLIIKQK”, for which the “soluble on expression in E. coli” value is “not soluble”.

In the case of “MAHHHHHHMVDRIEATLNRLIAFGPGTASYTDDAAFLQNVASAMEVAGEIPVLTEACMSLSVDLLENSSPQSAATHAVLTLLACCCMRDDNRELASRFGIFSLCVLLLRSSELLCKDTLLTIFDLIGTLCMSSASTRQMMRPCIPYVLGVMRTHPDCFQLCFSGAVVIGTLVMLDAANAELAAENDCVQILLTAFMRGHDKRKELLNRRRTSYSLRCQREEDESRRLCDNVIRWTEDALQKLVLAPSPVIDAKLEAADFGNYGDRVEVDELMWKLKFGRGKM”, the “soluble on expression in E. coli” value is “not soluble”.

As to “GSTAMATTMEQEICAHSMTFEECPKCSALQYRNGFYLLKYDEEWYPEELLTDGEDDVFDPDLDMEVVFETQ”, the “soluble on expression in E. coli” value is recorded as “soluble”.

For “MGSDKIHHHHHHMTVLHSPEPDIDPAILLEAADWLVLLQSGEATERDRMALAHWRERNPAHEAAWRRAENMLSTFDQVPPKLGHDTFSHLGNPGRRQMLRLGLLALAMPAAWITWRHSPWQEWVADLRTATGEQKLIDLNDGTHLVLNTTSAANVAFTTAERRLILLAGEILVTTGRDPSPVSRPFIVQTAHGSLRALGTRFTVRHFDDRTQVAVLEGAVEVHPAVSIQTTVLRAGEQMTFTGLDMQPVRPVEASTTLWEHGMLLARDMHLGELIAELNRYHRGVLRCDPSVASLAISGAFPVTDIPASLALLETTLPIRISSTTSWWITVQAR”, the “soluble on expression in E. coli” value is “not soluble”.
